{
  "source": "paper PMC5570060",
  "about": "(Nucleic Acids Research, 2017)",
  "binders": {"B1": {"name": "FBP21^200–376 (domain or fragment, UniProt O75554 200-376, looked up)", "chain": "HTSDLPSSKVNENSLGTLDESKSSDSHSDSDGEQEAEEGGVSTETEKPKIKFKEKNKNSDGGSDPETQKEKSIQKQNSLGSNEEKSKTLKKSNPYGEWQEIKQEVESHEEVDLELPSTENEYVSTSEADGGGEPKVVFKEKTVTSLGVMADGVAPVFKKRRTENGKSRNLRQRGDDQ"}, "B2": {"name": "FBP21^200–376 K357E/R359E (domain or fragment, UniProt O75554 200-376, looked up)", "chain": "B1 chain with K158E, R160E"}, "B3": {"name": "FBP21^200–376 K358A/R360A (domain or fragment, UniProt O75554 200-376, looked up)", "chain": "B1 chain with K159A, R161A"}, "B4": {"name": "FBP21^276–376 (domain or fragment, UniProt O75554 276-376, looked up)", "chain": "NSLGSNEEKSKTLKKSNPYGEWQEIKQEVESHEEVDLELPSTENEYVSTSEADGGGEPKVVFKEKTVTSLGVMADGVAPVFKKRRTENGKSRNLRQRGDDQ"}, "B5": {"name": "FBP21^326–376 (domain or fragment, UniProt O75554 326-376, looked up)", "chain": "EADGGGEPKVVFKEKTVTSLGVMADGVAPVFKKRRTENGKSRNLRQRGDDQ"}, "B6": {"name": "peptide 57 (peptide)", "peptide": "GVMADGVAPVFKKRRTENGK"}, "B7": {"name": "core binding motif of peptide 57, ^356FKKRR^360 (peptide)", "peptide": "FKKRR"}, "B8": {"name": "positively charged control peptide GKKRR (peptide)", "peptide": "GKKRR"}, "B9": {"name": "positively charged control peptide KRFKR (peptide)", "peptide": "KRFKR"}, "B10": {"name": "peptide 58 (peptide)", "peptide": "GVAPVFKKRRTENGKSRNLR"}, "B11": {"name": "SmB-derived peptide (peptide)", "peptide": "GTPMGMPPPGMRPPPPGMRGLL"}, "B12": {"name": "FBP21^116–376 (domain or fragment, UniProt O75554 116-376, looked up)", "chain": "KKKRKKDPSKGRWVEGITSEGYHYYYDLISGASQWEKPEGFQGDLKKTAVKTVWVEGLSEDGFTYYYNTETGESRWEKPDDFIPHTSDLPSSKVNENSLGTLDESKSSDSHSDSDGEQEAEEGGVSTETEKPKIKFKEKNKNSDGGSDPETQKEKSIQKQNSLGSNEEKSKTLKKSNPYGEWQEIKQEVESHEEVDLELPSTENEYVSTSEADGGGEPKVVFKEKTVTSLGVMADGVAPVFKKRRTENGKSRNLRQRGDDQ"}, "B13": {"name": "FBP21^116–376 pre-incubated with SmB peptide (complex)", "chain": "B12 chain", "peptide": "GTPMGMPPPGMRPPPPGMRGLL"}},
  "test_in_all_cases": "ITC",
  "key": {"Brr2^C-Sec63 [1]": {"target": "T1, Brr2^C-Sec63 (human, UniProt O75643 1840-2136)", "T1 sequence (looked up)": "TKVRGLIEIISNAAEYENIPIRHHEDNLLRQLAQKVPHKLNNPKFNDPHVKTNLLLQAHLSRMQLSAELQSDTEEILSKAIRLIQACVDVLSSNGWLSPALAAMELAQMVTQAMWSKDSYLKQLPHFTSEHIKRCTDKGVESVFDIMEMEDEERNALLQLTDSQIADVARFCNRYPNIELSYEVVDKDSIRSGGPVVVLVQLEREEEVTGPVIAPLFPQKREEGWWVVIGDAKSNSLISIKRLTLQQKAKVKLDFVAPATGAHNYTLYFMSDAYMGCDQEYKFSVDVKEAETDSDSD"}, "Brr2^C-Sec63 [2]": {"target": "T1, Brr2^C-Sec63", "remark": "listed apart in the source"}, "FBP21^116–376": {"target": "B12"}, "[3]": {"target": "T2, Brr2^C-Sec63 pre-incubated with FBP21^116–376 (human | , UniProt O75643 1840-2136; O75554 116-376)", "T2 sequence (looked up) 1": "T1 sequence (looked up)", "T2 sequence (looked up) 2": "B12 chain"}, "Brr2^C-Sec63 [4]": {"target": "T1, Brr2^C-Sec63", "remark": "listed apart in the source"}},
  "note": "Where a chain is given by its changes, count along the chain named. In names and notes the source's numbering stands. Read-outs that look alike come from different tables or passages of the source.",
  "data": [
    {"binder": "B1", "values": [
      {"measurement": "Kd", "setting": "Brr2^C-Sec63 [1]", "value": 0.125, "unit": "µM"},
      {"measurement": "stoichiometry N", "setting": "Brr2^C-Sec63 [1]", "value": 1}
    ]},
    {"binder": "B2", "values": [
      {"measurement": "Kd", "setting": "Brr2^C-Sec63 [1]", "value": "27.8 ± 0.9", "unit": "µM"}
    ]},
    {"binder": "B3", "values": [
      {"measurement": "Kd", "setting": "Brr2^C-Sec63 [1]", "value": "2.04 ± 0.37", "unit": "µM"}
    ]},
    {"binder": "B4", "values": [
      {"measurement": "Kd", "setting": "Brr2^C-Sec63 [1]", "value": 0.298, "unit": "µM"},
      {"measurement": "stoichiometry N", "setting": "Brr2^C-Sec63 [1]", "value": 1}
    ]},
    {"binder": "B5", "values": [
      {"measurement": "Kd", "setting": "Brr2^C-Sec63 [1]", "value": 0.11, "unit": "µM"}
    ]},
    {"binder": "B6", "values": [
      {"measurement": "Kd", "setting": "Brr2^C-Sec63 [1]", "value": 27.5, "unit": "µM"},
      {"measurement": "stoichiometry N", "setting": "Brr2^C-Sec63 [1]", "value": 1}
    ]},
    {"binder": "B7", "values": [
      {"measurement": "Kd", "setting": "Brr2^C-Sec63 [1]", "value": "20 ± 1.1", "unit": "µM"}
    ]},
    {"binder": "B8", "values": [
      {"measurement": "Kd", "setting": "Brr2^C-Sec63 [1]", "value": "37 ± 5.99", "unit": "µM"}
    ]},
    {"binder": "B9", "values": [
      {"measurement": "Kd", "setting": "Brr2^C-Sec63 [1]", "value": "27.3 ± 3.01", "unit": "µM"}
    ]},
    {"binder": "B10", "values": [
      {"measurement": "Kd", "setting": "Brr2^C-Sec63 [2]", "value": "1.34 ± 0.19", "unit": "µM"}
    ]},
    {"binder": "B11", "values": [
      {"measurement": "Kd", "setting": "FBP21^116–376", "value": "16.8 ± 3", "unit": "µM"},
      {"measurement": "Kd", "setting": "[3]", "value": "14 ± 0.8", "unit": "µM"}
    ]},
    {"binder": "B12", "values": [
      {"measurement": "Kd", "setting": "Brr2^C-Sec63 [1]", "value": "0.275 ± 0.106", "unit": "µM"}
    ]},
    {"binder": "B13", "values": [
      {"measurement": "Kd", "setting": "Brr2^C-Sec63 [4]", "value": "0.194 ± 0.014", "unit": "µM"}
    ]}
  ]
}
